Measured values: the supplement of paper PMC9170038

Tested on: MS2 coat protein
Test: apparent KD of MS2 coat protein; designed switch direction (-1 OFF switch, 1 ON switch): -1; higher = weaker reporter binding
In short: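 Designed RNA switches sharing common flanks were transcribed on Illumina chips by stalled E. coli RNA polymerase. They were titrated with SNAP-549-labelled MS2 coat protein, from 0.7 or 1.5 nM doubling to 3 µM, in Tris-HCl pH 7.5 buffer with KCl, MgCl2, BSA, DTT, tRNA and Tween-20. Titrations ran without input, with 200 uM small-molecule ligand, or with an oligonucleotide input. The apparent KD of each design is the median over its clusters, after curve-fitting of normalised cluster fluorescence.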

[1] = input ligand: microRNA oligo, concentration not stated
[2] = Eterna round: R95, input ligand: FMN 200 uM
[3] = Eterna round: R95, input ligand: microRNA oligo, concentration not stated
[4] = Eterna round: R95, input ligand: none

GUCGAACAUGAGGAUCACCCAUGUGAGGAUAUGCGAAUUUCAUCAAAAGAUGAAAUUUGCAGAAGGCACACGAC [Omei Ex1 A15] (Eterna round: R97, puzzle: Exclusion 1)
apparent KD of MS2 coat protein (input ligand: FMN 200 uM): 26.4 nM | apparent KD of MS2 coat protein (input ligand: none): 23.4 nM

AUCCAACAUGAGGAUCACCCAUGUCAGGAUAUCUAGCGGUGCGGCAACCCGGGCGCGCGGAGAAGGGACAACGG [EX1 B.23] (Eterna round: R97, puzzle: Exclusion 1)
apparent KD of MS2 coat protein (input ligand: FMN 200 uM): 56.2 nM | apparent KD of MS2 coat protein (input ligand: none): 27.2 nM

GGAAGAGAGAUAGGAUAUUAAAGGAAGAUGGUGAGAGAGACAUGAGGAUCACCCAUGUAAAGGAAUAAGAAGGGUCAGAAGGAA [EXNG2 V2 g] (Eterna round: R96, puzzle: Exclusion NG 2)
apparent KD of MS2 coat protein (input ligand: FMN 200 uM): 137 nM | apparent KD of MS2 coat protein [1]: 104 nM | apparent KD of MS2 coat protein (input ligand: none): 184 nM

GGUACUAUCACCUGAGUGGUAGUGCAACAAGCUUGUGAUACAUGAGGAUCACCCAUGUCCUCAUUUGCUCGUCUUAU [JL-sv3-2.25 JL mod] (Eterna round: R96, puzzle: Sensor v3, turn-off variant 2)
apparent KD of MS2 coat protein (input ligand: FMN 200 uM): 237 nM | apparent KD of MS2 coat protein [1]: 858 nM | apparent KD of MS2 coat protein (input ligand: none): 245 nM

AAUCAUAGGUAAGGAUAUGAAGAUCUGGUGGUGACAUGAGGAUCACCCAUGUGAAAACGAUGAGAUCAGAAGGUACAAUAUGAA [AK ExNG2-4] (Eterna round: R96, puzzle: Exclusion NG 2)
apparent KD of MS2 coat protein (input ligand: FMN 200 uM): 108 nM | apparent KD of MS2 coat protein [1]: 18 nM | apparent KD of MS2 coat protein (input ligand: none): 88.3 nM

AAACGGCGGAUCGUGGCUUUUUGCUCGUCUUGUGCUUCAACAUGAGGAUCACCCAUGUAGUGGUGAUCCGUUGUAAA [Grok-var2-17 mod JAL] (puzzle: Sensor v3, turn-off variant 2)
apparent KD of MS2 coat protein [2]: 25.8 nM | apparent KD of MS2 coat protein [3]: 26.7 nM | apparent KD of MS2 coat protein [4]: 42.1 nM

CUGAACCCGGUAGGAUAUAUUGUGGGCAGGCGUGGAACGACAUGAGGAUCACCCAUGUAAUUGAGGUAGAAGGGCCGAGAGAUU [Excl-NG2-LRO14] (Eterna round: R96, puzzle: Exclusion NG 2)
apparent KD of MS2 coat protein (input ligand: FMN 200 uM): 32.8 nM | apparent KD of MS2 coat protein [1]: 25.9 nM | apparent KD of MS2 coat protein (input ligand: none): 37.1 nM

GAGCAGCGAGGAUAUACAGACGGGUCCAGUACGUGUCUUGGACUUGAGGAUCACCCAAGUAGAAGGCGCCACAG [salish99_ex2_r4_605] (Eterna round: R97, puzzle: Exclusion 2)
apparent KD of MS2 coat protein (input ligand: FMN 200 uM): 42.6 nM | apparent KD of MS2 coat protein (input ligand: none): 25.8 nM

CGUACUGAAGUGAGGAUAUUGUCUCGGAUACGAAACAAGAAGGCACAUGAGGAUCACCCAUGUAAACAGUACGA [Malc #30 mod 10] (puzzle: Brourd's mod of Exclusion 4)
apparent KD of MS2 coat protein [3]: 15.6 nM

UAUAUAUAGUAAGGAUAUGUAUAUAUUUUAGAAACAGAAGGUACUGACAUGAGGAUCACCCAUGUUUUAGUGUGGGCAUGUAGA [JMF's solution 67] (Eterna round: R96, puzzle: Exclusion NG 1)
apparent KD of MS2 coat protein [1]: 52.7 nM

GCGCACCUACCAAAAGGUAGGCCCACAUGAGGAUCACCCAUGUAGGAUAUCGAUUGCUUUGCAGUCGAGAAGGACGUGAUGCGC [JL ENG3 3.80 Mod 17] (Eterna round: R96, puzzle: Exclusion NG 3)
apparent KD of MS2 coat protein (input ligand: FMN 200 uM): 25.7 nM | apparent KD of MS2 coat protein [1]: 11.6 nM | apparent KD of MS2 coat protein (input ligand: none): 18.3 nM

ACUUAUGCGGAGGAUAUUUAACGUAGCGAAAGUAAAGAAGGCCGAACAUGAGGAUCACCCAUGUGGAGGUGUAA [Eternabot (L1) Solution 24] (Eterna round: R97, puzzle: Exclusion 6)
apparent KD of MS2 coat protein (input ligand: FMN 200 uM): 92.5 nM | apparent KD of MS2 coat protein (input ligand: none): 23 nM

UUAUUCAGAGGAUAUGCGCAUAGAUAAGACUUUUUUUCUUAACAUGAGGAUCACCCAUGUAGAAGGCUGUAAUA [Ex2 #57] (Eterna round: R97, puzzle: Exclusion 2)
apparent KD of MS2 coat protein (input ligand: FMN 200 uM): 19.8 nM | apparent KD of MS2 coat protein (input ligand: none): 18.4 nM

CCAAGCUUAUUCAUUAACCACAUGAGGAUCACCCAUGUAUAGGCAAUUAUGACUGGGCUCUGUGGUGCUCGUCUUCU [mod-malcom] (Eterna round: R97, puzzle: Sensor, turn-off variant 1)
apparent KD of MS2 coat protein (input ligand: FMN 200 uM): 59.7 nM | apparent KD of MS2 coat protein (input ligand: none): 60.3 nM

GUGUACAGAGGAUAUACUCGAAUCUAGCGAAGCUAGGUUUGACAUGAGGAUCACCCAUGUAGAAGGCUGUACAC [Dot plot directed A] (puzzle: Exclusion 2)
apparent KD of MS2 coat protein [3]: 13.8 nM

AAGUACCGUCACGAUAGUGAUGGUACAACAAGCAGUGAUACAUGAGGAUCACCCAUGUCCUCAAUUGCUCGUCUUAU [Sensor 3 - 75] (puzzle: Sensor v3, turn-off variant 2)
apparent KD of MS2 coat protein [2]: 133 nM | apparent KD of MS2 coat protein [3]: 307 nM | apparent KD of MS2 coat protein [4]: 157 nM

UACCUGAGGCAAAGCUUUAGGUAAACAUGAGGAUCACCCAUGUAGGAUAUGGUAGGCAAAGCUUACCAGAAGGACAUGAUAAUU [Mat - Exclusion NG 3 - Mod of JL - D35] (Eterna round: R96, puzzle: Exclusion NG 3)
apparent KD of MS2 coat protein (input ligand: FMN 200 uM): 544 nM | apparent KD of MS2 coat protein [1]: 79.2 nM | apparent KD of MS2 coat protein (input ligand: none): 80.4 nM

CAGUACGGAGGAUAUACAUGAGGAUCACCCAUGUACGCGGGUGUCACUGGGAGAACUUGUAGAAGGCCGAGUCC [Eternabot (L1) Solution 8] (Eterna round: R97, puzzle: Exclusion 3)
apparent KD of MS2 coat protein (input ligand: FMN 200 uM): 196 nM | apparent KD of MS2 coat protein (input ligand: none): 107 nM

GAUUAUGCGAGCUUUAGGGACAUGAGGAUCACCCAUGUUCGUCUUGUUGAUCUAGGUACACUAACAUACCUAAAUCU [JMF 16] (puzzle: Sensor v3, turn-off variant 1)
apparent KD of MS2 coat protein [2]: 19.9 nM | apparent KD of MS2 coat protein [3]: 28.5 nM | apparent KD of MS2 coat protein [4]: 21.9 nM

CACAAUGACGUCAGGAUAUGUAAACAGCGAAGUUUGUAGAAGGGACAUGAGGAUCACCCAUGUAUAACUGGGAG [Eternabot (L2) Solution 27] (Eterna round: R97, puzzle: Brourd's mod of Exclusion 4)
apparent KD of MS2 coat protein (input ligand: FMN 200 uM): 220 nM | apparent KD of MS2 coat protein (input ligand: none): 149 nM

AAACGGUAAGGAUAUCGGGCAACGGACAUGAGGAUCACCCAUGUGAACCUGCGUAUCCUCCGAGAAGGUACAAAAG [Diinbibe] (Eterna round: R97, puzzle: Exclusion 5)
apparent KD of MS2 coat protein (input ligand: FMN 200 uM): 20 nM | apparent KD of MS2 coat protein (input ligand: none): 10.9 nM

UAUUGAGAGCAGGAUAUAUUCCUGAUGUAUGAAGUAGAAGGGCUCACAUGAGGAUCACCCAUGUGAUCCUGAAU [Mat - Exclusion 6 - Eli Mod - D5] (Eterna round: R97, puzzle: Exclusion 6)
apparent KD of MS2 coat protein (input ligand: FMN 200 uM): 15.5 nM | apparent KD of MS2 coat protein (input ligand: none): 14 nM

CAACAUGAGGAUCACCCAUGUGGCCCUACGUGCUGGCUCGGGCAGGAUAUUAACCAAUGAGUAGUUAAGAAGGGCUCGCAAGUA [Eternabot solution 14] (Eterna round: R96, puzzle: Exclusion NG 3)
apparent KD of MS2 coat protein (input ligand: FMN 200 uM): 223 nM | apparent KD of MS2 coat protein [1]: 40.6 nM | apparent KD of MS2 coat protein (input ligand: none): 76.6 nM

CUGAGUUUAGGAUAUACAUGAGGAUCACCCAUGUAAAGUAGCUUGCGUACAGGCAGAUGUAGAAGGAAAUUCGG [Mod of JL 7 - Jieux - Exclusion 3] (Eterna round: R97, puzzle: Exclusion 3)
apparent KD of MS2 coat protein (input ligand: FMN 200 uM): 31.5 nM | apparent KD of MS2 coat protein (input ligand: none): 41.8 nM

UUGUUACGAUUAGGAUAUUAUUGAUUGGACAGUAUGAUUUACAUGAGGAUCACCCAUGUUACUUUUAAGAAGGAAUCGUAUUAU [JR_ExcNG2_Sub090] (Eterna round: R96, puzzle: Exclusion NG 2)
apparent KD of MS2 coat protein [1]: 14.8 nM
